The text below walks through data of the supplement of paper PMC10567573.

B1: KLHL20 (parent)
chain: YQDMIYAVGGRDDTTELSSAERYN
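Also: lentivirally expressed fusions sorted by FACS into six bins by GFP to DsRed ratio, PSI derived from sequencing read proportions per bin multiplied by bin number.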

In the data set the parent is B1. As to the kind of experiment: protein stability index of a GFP-peptide fusion (GPS, HEK-293T) (PSI 1-6); higher = more stable. As to conditions: c terminus: a fixed tail appended.
On to YQDMIYAVGGRDDTTEQSSAERYN, for which the protein stability index was found to be 2.24.
For YQDMIYAVGGRDDTTEKSSAERYN the value was 2.41.
In the case of YQDMIYAVGGRDDTTESSSAERYN it was 2.06; in that of YQDMIYAVGGRDDTTEYSSAERYN, 2.03.
In the case of YQDMIYAVGGRDDTTEPSSAERYN it was 2.49.
Regarding YQDMIYAVGGRDDTTERSSAERYN, the protein stability index was 2.19.
In the case of YQDMIYAVGGRDDTTEGSSAERYN it was 2.82; in that of YQDMIYAVGGRDDTTEMSSAERYN, 2.35; in that of YQDMIYAVGGRDDTTEWSSAERYN, 2.45.
For YQDMIYAVGGRDDTTEASSAERYN the value was 2.44.
In the case of YQDMIYAVGGRDDTTECSSAERYN it was 2.52; in that of YQDMIYAVGGRDDTTEESSAERYN, 2.58; in that of YQDMIYAVGGRDDTTETSSAERYN, 2.89.
For YQDMIYAVGGRDDTTENSSAERYN, the protein stability index is 2.38.
YQDMIYAVGGRDDTTEVSSAERYN: the protein stability index came out at 2.
Regarding YQDMIYAVGGRDDTTEFSSAERYN, the protein stability index turned out to be 2.14.
In the case of YQDMIYAVGGRDDTTEISSAERYN it was 2.33; in that of YQDMIYAVGGRDDTTEDSSAERYN, 2.12.
Regarding YQDMIYAVGGRDDTTEHSSAERYN, the protein stability index is 2.32.
For YQDMIYAVGGRDDTTELLSAERYN the value was 2.76.
In the case of YQDMIYAVGGRDDTTELESAERYN it was 2.02; in that of YQDMIYAVGGRDDTTELFSAERYN, 2.63; in that of YQDMIYAVGGRDDTTELRSAERYN, 1.99.
With YQDMIYAVGGRDDTTELVSAERYN, the protein stability index is 2.32.
For YQDMIYAVGGRDDTTELCSAERYN the value was 2.07; for YQDMIYAVGGRDDTTELWSAERYN, 2.27.
For YQDMIYAVGGRDDTTELTSAERYN the value was 2.1; for YQDMIYAVGGRDDTTELDSAERYN, 2.43; for YQDMIYAVGGRDDTTELASAERYN, 2.03.
For YQDMIYAVGGRDDTTELMSAERYN the value was 2.07; for YQDMIYAVGGRDDTTELNSAERYN, 2.66.
With YQDMIYAVGGRDDTTELPSAERYN, the protein stability index was 2.1.
With YQDMIYAVGGRDDTTELKSAERYN, the protein stability index is 2.25.
For YQDMIYAVGGRDDTTELHSAERYN the value was 2.9; for YQDMIYAVGGRDDTTELQSAERYN, 2.22.
As to YQDMIYAVGGRDDTTELYSAERYN, the protein stability index was 2.22.
On to YQDMIYAVGGRDDTTELGSAERYN, for which the protein stability index was 2.5.
For YQDMIYAVGGRDDTTELISAERYN the value was 2.12; for YQDMIYAVGGRDDTYELSSAERYN, 1.8.
For YQDMIYAVGGRDDTCELSSAERYN, the protein stability index came out at 2.49.
Consider YQDMIYAVGGRDDTRELSSAERYN, for which the protein stability index is 2.08.
In the case of YQDMIYAVGGRDDTHELSSAERYN it was 2.19; in that of YQDMIYAVGGRDDTLELSSAERYN, 2.58.
For YQDMIYAVGGRDDTAELSSAERYN the value was 2.4.
In the case of YQDMIYAVGGRDDTQELSSAERYN it was 3.13; in that of YQDMIYAVGGRDDTGELSSAERYN, 2.21; in that of YQDMIYAVGGRDDTFELSSAERYN, 2.38.
Turning to YQDMIYAVGGRDDTSELSSAERYN, the protein stability index was 2.46.
On to YQDMIYAVGGRDDTDELSSAERYN, for which the protein stability index was 2.49.
In the case of YQDMIYAVGGRDDTEELSSAERYN it was 2.44.
For YQDMIYAVGGRDDTMELSSAERYN the value was 1.92; for YQDMIYAVGGRDDTNELSSAERYN, 2.33.
In the case of YQDMIYAVGGRDDTPELSSAERYN it was 2.17.
Consider YQDMIYAVGGRDDTVELSSAERYN, for which the protein stability index stood at 2.08.
In the case of YQDMIYAVGGRDDTIELSSAERYN it was 2.09; in that of YQDMIYAVGGRDDTKELSSAERYN, 2.13.
Consider YQDMIYAVGGRDDTWELSSAERYN, for which the protein stability index came out at 1.8.
For YQDMIYAVGGRIDTTELSSAERYN the value was 1.6; for YQDMIYAVGGRHDTTELSSAERYN, 2.17.
With YQDMIYAVGGRGDTTELSSAERYN, the protein stability index was 2.47.
In the case of YQDMIYAVGGRQDTTELSSAERYN it was 2.09; in that of YQDMIYAVGGRFDTTELSSAERYN, 1.45; in that of YQDMIYAVGGRWDTTELSSAERYN, 1.8.
For YQDMIYAVGGRKDTTELSSAERYN the value was 2.1; for YQDMIYAVGGRRDTTELSSAERYN, 1.78.
Regarding YQDMIYAVGGRCDTTELSSAERYN, the protein stability index turned out to be 2.01.
Regarding YQDMIYAVGGRPDTTELSSAERYN, the protein stability index was 2.34.
Turning to YQDMIYAVGGRSDTTELSSAERYN, the protein stability index came to 2.32.
Consider YQDMIYAVGGREDTTELSSAERYN, for which the protein stability index turned out to be 2.74.
Turning to YQDMIYAVGGRTDTTELSSAERYN, the protein stability index came to 1.58.
For the variant YQDMIYAVGGRNDTTELSSAERYN, the protein stability index was found to be 2.43.
For YQDMIYAVGGRYDTTELSSAERYN the value was 1.9; for YQDMIYAVGGRADTTELSSAERYN, 2.33.
In the case of YQDMIYAVGGRVDTTELSSAERYN it was 1.53; in that of YQDMIYAVGGRLDTTELSSAERYN, 2.21.
For YQDMIYAVGGRMDTTELSSAERYN the value was 1.76.
YQDMIYAVGGRDDTTQLSSAERYN: the protein stability index amounted to 2.36.
For YQDMIYAVGGRDDTTCLSSAERYN the value was 1.5; for YQDMIYAVGGRDDTTMLSSAERYN, 2.08; for YQDMIYAVGGRDDTTWLSSAERYN, 2.23.
For YQDMIYAVGGRDDTTLLSSAERYN the value was 2.67.
In the case of YQDMIYAVGGRDDTTPLSSAERYN it was 2.05; in that of YQDMIYAVGGRDDTTSLSSAERYN, 1.91; in that of YQDMIYAVGGRDDTTHLSSAERYN, 2.5.
On to YQDMIYAVGGRDDTTILSSAERYN, for which the protein stability index worked out at 2.07.
In the case of YQDMIYAVGGRDDTTFLSSAERYN it was 1.75; in that of YQDMIYAVGGRDDTTVLSSAERYN, 2.78; in that of YQDMIYAVGGRDDTTKLSSAERYN, 1.85.
In the case of YQDMIYAVGGRDDTTALSSAERYN it was 1.95; in that of YQDMIYAVGGRDDTTNLSSAERYN, 2.38; in that of YQDMIYAVGGRDDTTRLSSAERYN, 2.51.
Regarding YQDMIYAVGGRDDTTDLSSAERYN, the protein stability index worked out at 2.34.
For YQDMIYAVGGRDDTTYLSSAERYN the value was 1.69; for YQDMIYAVGGRDDTTTLSSAERYN, 2.17.
